Laboratory results: publication doi:10.1101/2022.07.22.500997 (bioRxiv, 2022)

Key:
[1] = biological target: Myc_(GH172) (GII36_05205), DUF2961 / GH172 enzyme from Candidatus Mycosynbacter amalyticus (Candidatus Mycosynbacter amalyticus); assay: SEC-MALS
[2] = biological target: Dg_(GH172c) (HMPREF9455_02479), DUF2961 / GH172 exo-D-arabinofuranosidase from Dysgonomonas gadei (Dysgonomonas gadei) (UniProt F5IZG2); assay: SEC-MALS
[3] = biological target: Dg_(GH172c) (HMPREF9455_02479), DUF2961 / GH172 exo-D-arabinofuranosidase from Dysgonomonas gadei (Dysgonomonas gadei) (UniProt F5IZG2); assay: crystal structure
[4] = biological target: Dg_(GH172a) (HMPREF9455_02467), DUF2961 / GH172 exo-D-arabinofuranosidase from Dysgonomonas gadei (Dysgonomonas gadei) (UniProt F5IZF0); assay: SEC-MALS
[5] = biological target: Dg_(GH172b) (HMPREF9455_02471), DUF2961 / GH172 exo-D-arabinofuranosidase from Dysgonomonas gadei (Dysgonomonas gadei) (UniProt F5IZF4); assay: SEC-MALS
SEC-MALS = biological target: the molecule itself; assay: SEC-MALS

Molecule: Myc_(GH172) (GII36_05205), DUF2961 / GH172 enzyme from Candidatus Mycosynbacter amalyticus
- stoichiometry N [1]: 3

Molecule: Dg_(GH172c) (HMPREF9455_02479), DUF2961 / GH172 exo-D-arabinofuranosidase from Dysgonomonas gadei (from UniProt F5IZG2 1-402) (enzyme)
- stoichiometry N [2]: 6
- stoichiometry N [3]: 6

Molecule: Dg_(GH172a) (HMPREF9455_02467), DUF2961 / GH172 exo-D-arabinofuranosidase from Dysgonomonas gadei (from UniProt F5IZF0 1-386) (enzyme)
- stoichiometry N [4]: 12

Molecule: Dg_(GH172b) (HMPREF9455_02471), DUF2961 / GH172 exo-D-arabinofuranosidase from Dysgonomonas gadei (from UniProt F5IZF4 1-643) (enzyme)
- stoichiometry N [5]: 2

B1: Noc_(GH172) (O3I_017420), DUF2961 / GH172 enzyme from Nocardia brasiliensis (enzyme)
chain: MTPPRRSELWLLDDTRTRSVSAENPTGAPGGGARATTGTGAHAARLLGPGWKISPSIVLGDGETATLADVSGPGVLRHCWLTTDRAALRELTLRMYWDDAAEPAIDVPLGDFFCNGWDELALVDSEMVVVAPAGGLNSYWPMPFRRRARITLENHCGRSVPVYYQITYGEEDVPGEAGYLHARWSRSAPLGSPAVHTLLDTGPARGRYVGTYLAIRPGAPRWWGEGEMKFYLDGDDEYPTLCGTGTEDYFGGAWNFDMDGKYRTYSTAYLGLPQALPADEIYQAHQRFGMYRWHVHDPICFHRELRVTVQGLGWRDSDTYLPLEDAEIATTVWWYQEVPPSG
- stoichiometry N (SEC-MALS): 3
